Data taken from the DeepSol protein solubility set.

assay: soluble on expression in E. coli; label from the status in PepcDB or PDB records

**Q.** Which “soluble on expression in E. coli” value does the source give for “MAHHHHHHMPLVKAETDASFVAEVAESVGGACARMNDHISVMIEEYLRRRTQQVRDDVKQELDAVRVHLERKIADAEAAKAVEEERYHKKKVQVLQAAVELQKMHANLHLQRLFHTWRRCADVRQERRRLAEEAHIHIGRLSLFHAYMQWRLFAAALRQKRLEAKEAHKRDCREQELLGQIEGYQRQLEGERAKDASLNEKLKEAFVRGMCALNREAVHVLHGSEENQDADVEAIAEILSRESHSRHRSVTPGHMDSSTLSNVHGHGVCPVHHIDAKGSFYHPCFSPGYCEYDRHSGSRAPVSSAVPPSASGPFVVSADPKSARSIDSSPPVPFRHLSKSSTTRWRM” here?
**A.** not soluble

**Q.** For “MAHHHHHHMPYQHIKVPEGGDKITVNKDFSLNVSDQPIIPYIEGDGTGFDITPVMIKVVDAAVEKAYGGKKKIHWMEIYAGEKATKVYGPDVWLPEETLQVLKEYVVSIKGPLTTPVGGGIRSLNVALRQELDLYVCLRPIQYFKGVPSPVREPEKTNMVIFRENSEDIYAGIEWAAESEQAKKVIKFLQEEMGVKKIRFPQTSGIGIKPVSKEGTERLVRKAIQYAIDNDRKSVTLVHKGNIMKFTEGAFRDAGYALAQKEFGAELIDGGPWMKFKNPKTGNEIVVKDSIADAFLQQILLRPAEYDVIATLNLNGDYISDALAAQVGGIGIAPGANLSDSVAMFEATHGTAPKYAGKDYVNPGSEILSAEMMLRHLGWTEAADVIISAMEKSIKQKRVTYDFARLMEGATQVSCSGFGQVLIENME”, which “soluble on expression in E. coli” value is on record?
**A.** soluble

**Q.** With “MAHHHHHHMQDEAVRAALQSGVWREKKDPKSGKTYYVNVQTRVSVWNLAKELARLQQQQKFTEEMELRKQKKLRSLAEERQAQAKKWQEEEEALMQRMAELEREKARLESEITILQGPTEVEAASLQEEQSRLLDAKQSLELIVSEELRKRRESAAELQQLQARLEALRQERQEELGMFESLRKRLEQLRQEHAEALADLQREEAVEESLREELQREERQLEDALHEEVRLKELLKMREDEVDRMKAELKAVCQRKAELQQQHQRLLEEVAESAMGAAEDTLQEPPPSSSLLLSHLQREVANRKKSLRHLMQQQRLAKEAEWMEAESAELRRFTALAEREAQRLAQFSRELSDQVRAVTPLLEAVKHDVQQLEEEMEELR” as the sequence, how does the “soluble on expression in E. coli” value read?
**A.** soluble

**Q.** Which “soluble on expression in E. coli” value does the source give for “MAHHHHHHMQICPEGKGDSAASELLRFSDADGAVVREVLLDALCRVVPASLFSDAAALENVDEAELCVLLRYATEIQEQNAAFFQVMGGSEVMSRPERAATTEGRRVLQHFTRLVLARCRHLLHHHDGPPPTLLSGDAENIPFVDLQLYADHNHPEVRVHQKIGRANAQGLRYAGLQSTASTTMAELLSRLESANQRMAAGARGLRCDLLRHVAQKAALGKSKLTLEDVTRALPLLAAQMGKTSEQQVKSTYERLLTAMSTTIAVALQQPQKPACILALLEGLAGCHYTPSSYKLLEMVMLRMMMRGAFTLSDAGRCLIAMLQVVGPQKVSQSVKQAIAMRVVAAVDARSDSTAADVLAVLRALRYSCYSSFASLVCLVSKSPLMGNTANWQPSEHVRYAVLLAAAAAALETEANSELGIAVSTTARERLLLGLSPTHPPSAVPPHSPACVGEDAYQECVTACAALDVSPVPPALTAWAHADIDARPVHSLCTPALAVSTMEALEAMSLAPSRWYTAYVNYLTDTLEQMQRRPLLEDDAETAVRCLFLQRAPGAVTRLASVLLEHEVDRLDQTLTRGAVVRDDARAPPVCTFQQRSLERQTSEGETETRLLRYCAALQHASREMLSTRSAEV” here?
**A.** not soluble

**Q.** For “MAHHHHHHMRGMWATLRLFRCDRNFTALNRGNGVYNIQSVASRDCALCHSQRAVKHRSLSPDDPFGEKSASDDPVDGFYGAWSNINVDAFANAAASEEVRMAHFGPEWSRFTTIGRLSVKKMNESGSSASSGSEDCGMASQHPLGAEELHMRELRERRKVLERNYSSYDEYVAKELGLSEVDDCDNACGLQSEDPEIVADGEEAEDNDDADEDADNVPLPQFMRRSGCEQENDTGVNIYSSDQQQQQQMGGVPANTVNEGHVPQRRGTLHPPEPLAQVVFCQLGEPHGDSELPREDPLHWDTEEVILWIRRMEAAQCVLSSGSLACDSLVMEDPSMQEAFRMARIDGDYLLKNTVPATMFQVMRRWHLRRHEIVLAVLKEQQRRGIDSHEINTSIFDDPIMRGILDSGRAKLDEVVLMVTPMLVQETICQGYLYCR”, which “soluble on expression in E. coli” value is on record?
**A.** not soluble

**Q.** With “MAHHHHHHMRKKKTKDVPTVFIECALEGEGEKLCVRWLFGMGVGGKPYDADEYDATIVWVPSDYAFHGDKFTSPLRPIPTKNPVAVVRIPVYLCRKKALRSCGGNPMLLSVYGSYGECCDVVFENERLSLLDRGFVWGFAAVCGGSELGAAWHKAGCGLQRATSVNDFVSVSFYVQETGWCAAGQIVTHGSSAGVFVATAAMCVAPSLPLAVIALVPCVDCLTTLMDDSLPLTVSNWEEFGNPRDDADAYRLLRAMLPMDNIPSVGVALPHMLLLTAWHDTRVGFWESLAFTARLRAREMEEGAATR” as the sequence, how does the “soluble on expression in E. coli” value read?
**A.** soluble

**Q.** Which “soluble on expression in E. coli” value does the source give for “MAHHHHHHMRPGRLDKTIVVPLPDIKGRYEILKMYSSKIVLSKDVDLHVLSRRTVGMTGADLNNILNIAAIKCSVEGKKAVDMNSIEQAFDRVVVGLQRKSPLNEEEKNITAYHEGGHTLVNFYTKGSDPVHKATIMPRGMSLGVTWKIPISDKYSQKIRDVQSEIDILMGGLVSEEIIFGKNNVTTGCSSDLQRATHIAQSLVMNYGVGINEENISMFLQDKKNISEEMKIKIDKSIQRILLDSYNRAKKVLNQHIDELHRVASALVEYETLTSDEIKLAMQGKHDQIRKNRELKQKEFNLKDSRIS” here?
**A.** not soluble

**Q.** With “MAHHHHHHMRSVWSGCRSIVSPPLWPLRLRHSVQVGAHGGHAFGMCSRSESVVSTFAMRVSLRWHGTTTPPSASPEGSSGAVHSVLSAAGHNDEEEASSSRSFRGTVRTVRLHNMPRTWLHEEVMQFLHQVAEHAGIDPPPEATQDNGTEGNANSKEYEEEDMTSAVPNVTSPFVARMHIPFGRRTGIVCGPPIIQLTSDALAGYLLNDLNFEPDDYRSRIYFTEVVNDKYHEATKMVNKDEAALLKMEQQEALESLELDRYLMAPDLLYDIAKMRQRRLVTRRSKLLLHTFADDDRPDEGEDGKDQSEVKDDDPTNENKRVRLRRHKKSKKTLRCVGEYKELGRGSVHSVPLALPYVQGRRGV” as the sequence, how does the “soluble on expression in E. coli” value read?
**A.** not soluble

**Q.** Which “soluble on expression in E. coli” value does the source give for “MAHHHHHHMRVPSLPIIIDEFPALAGSRSHSGSGSGSELFFLTHFHTDHMKGLSSAWTAGLIITGTITRQLLLNKFEGLRGRVLGLPFWCRTPVLSAAGAAHSETDSTTATAVPVVHVTLLPAFHIPGSAMIYIETPSGVTYLHTGDFKYTEAAAQMSSLRTFFQSHRVDHLYLDDTWLHLGHTELKSWPALTESPLVGHRGVGIANSGIRVLSKLLDADQVEEAIEAIGRRMDYQRQLHAQWVQQQSQCDSNGTAEALTPSSSSSSASAELSDARLPFIVRVYLHNQFGKELLIQQLAARLRTRALIDDARYARLLTVVEALEEERDDLEAFEGADPARLDGAAPPLSAEELAWRASGGEAARYPYDLNCFVSCSQAQQQKQQQLWARWRYDRGAMSPQQPQPPADHSVKRSCGPPLIEVVRNRASIEPATLQAASAARGGTPYYGVVISGWARLQSQTHGPAASGQVWQVPTTLHSTPQEIVDFVALLRPLSVTPLHYRPSRGEVVMQRLGPYLRVPFVNNHDTGCGATTAATAGRDAVALRGGVVRWMPYLPAYLLLSQMGGSDSRSGLGTSTLLGMLGARDAAAVCDNGLDALEEKPPRGFRIRPAGLPLPSSKAAVAASRSGGEAPGGCDSHTAAITASYFFAPSPTTTTSLPAQGMADVSGKATNPTDTSVSSRVRADGLRISTLLPSWRLSHLTQSYLSTQQSGGKRERVDVEMDGQSMVAHRAERHAATATKIESGERAAKAANDHDKDCPAVLLSSSATTGLLSLSDIADNVLA” here?
**A.** not soluble

**Q.** With “MAHHHHHHMSALAKKMMEKYGWKEGEGLGKERSGIKSYVKVTRRDPHTATGLGHAADPAQGGSLASTHAVELDAIYGQLHKETRKRQRQSSKARVDQGDTSEDEVDNGGELSDVSSTNSGASSSSSADSKSEGKAAVAARAAVKRQRRAPSSSPSNSGNDGDDRTDSKRSKGEHIGDVTRMSDKELFQRCGGVRLGRAGRHRLFDGKLKRIQDSS” as the sequence, how does the “soluble on expression in E. coli” value read?
**A.** soluble

**Q.** With “MAHHHHHHMSDLSTAHASQGYRFDPSRMNGCLHDTIIFKRLPSRLRHSTGSRTRSLRVNRPAVE” as the sequence, how does the “soluble on expression in E. coli” value read?
**A.** soluble

**Q.** Which “soluble on expression in E. coli” value does the source give for “MAHHHHHHMSFVVIRLLEVLPTQVRTQLTANAEYVVSVSSAQRLSTFCSQGPYAATRLQLSDFDGAARLWEPQWNVVEALPATKEVHDVSRVCAVYRGNSGVTAFAFIDEHGTVLATTRWVDCALSTVSGRERAVLQAAQLRKLFTQCRPTVMAIGASSIACLPLLRTLETFLREQVHQSAVVDVPVVWASVEVPRYYSVTTYARLELPQTENIVVTSVALARYVQDPLQVLCSLFEGEQTALQLCRTIRISASHDRQLYQASGVGDEPVGGGGGPVGRRYCVPPQHCRDAAVCSRPRPRQSACVGQCHPSLRRSAKSTASGAASGTLRGRHRAERRAGAARSLAGAMRRGAPVAPSRCNADPVAVVRDRLFGGKGDCLLIDAAGRSVASRAAWNGAGGAPGCTLPRRRAFYGCQGQGECGGPGRRGSS” here?
**A.** not soluble

**Q.** With “MAHHHHHHMSISIRSTAQRQLARRQPPTTSSSSVSLPRAAFAPASRSASAVEATSESASSSQVPEQQEATPTRILDNARSSSCAAAPPPFSASSDQRSDQINKCIHDTSTLTSKPPPSASSASSRGAAAPSLPPSAPSSTTGAPRSGHDAEPEGLHDAASSTAAPSGAGSSAVANSQRTAASHSLLYSVSRFTEPVKRIILIRNGRSEANEDVRAYVQTPDWRIPLVEEGKREAIAAGRALSELIGDGPVYFYYSPYIRSRQSLRYVLQGFDEARLSGLSHSREWWEDEETAAVASAAAAAESSTLKCATASADEAGSPPLLAPAPSAISTNATSSDAQCCFHRDPSLVLNRGTSNNIIGVREDVRLRDGDIGRYTSADELMHHLVERERYGRFFYRFPFGESGADVCDRVTSFLDAFQRERVEFPMDTSVVIITHGLTMRMLIKRWFYLTVETFHKMKSPPPGSLCTLTRLHHRSCFRLDECCVESMNLPLSLNEFNGYKYRNKQLLGSMSSGAPYM” as the sequence, how does the “soluble on expression in E. coli” value read?
**A.** not soluble

**Q.** Which “soluble on expression in E. coli” value does the source give for “MAHHHHHHMSLAPNTGSVELKAYSAHASLLLARGERIDKRAFDECRLPAIVREERVGGATVAGAGDGSPQSSASSNMTSTYTVLDGKSLAAVMYTDAYGTCIQCTVQGLLGPPRPEQPAAGRLNVHVEAPFVEHLSGGATSTNYRSFQYMIASGNADLPLRQLEGYIGTVLDGCFDLSQLSIYAGEACWVLKVSVLLLSVDGGLRAGSLHAALAALHKLHLPRIRLPNGDVIEGRQVQLSCMPVACTFGFLAGAQVRLVADTTAIEEHVADGLITVVVDEAERILSVHHTGRCPLLAQALTAAAQQWAAASGSMRKALYG” here?
**A.** not soluble

**Q.** Which “soluble on expression in E. coli” value does the source give for “MAHHHHHHMSLKAKLDVYPVENYTQTSVDVSNGHAGVAGNKVNLGAGSAAPFRPPSAIEKLLSLKKRCEEEPCVHSVEGVLLVHLHRHPHILLMKQINSRTRDADGMRTVPPSNTNAEVTYRLPGGRCRRGEAEESCLLRKLGRHLLNEAKTPAGAAEVASTGNSDTVVDVGMTHTASKAGSCFRVGEVLATWYRPHFTPHMYPYVPAHIAAGSVREVRTIYLVHLEPTVYFTMVQESVELVAAPLFDLYENSSKYGPIVASLPVLLSRVLINYCSTEY” here?
**A.** not soluble

**Q.** With “MAHHHHHHMSMHSVEGALCSCSMCKLTCHTASVYANQRRASKHVMLARPSPFYAETGGLPPEVPQLAPPPERLVVCPVFEEYGFCPFGRICFLPHSGEKTPLVERKGTSREELERLREKARLQEEEELWSCDVCGFDGIDENTQGRVGEMYYYRNCPRCSLMCYFPHIAYLVDAIFDASGDDYQIFKDEIDRCRRELPDILKVPLTYEAHRIASTAFAWSLVSPKHVKDALDAAYRALPEMSCIVSVGSGVGYVEHIFNRVANGVPAAPRDPDPALGISSFEGVHACFYPKKKLPIYAFDEVALNCPYSVCVSLGGPVALLSLQCPTSVLLLSWPPFGSPKEEQSSMAFEALEYFTQAGGKVVIYIGDVASTGDWRFHELLYTHYKLVKDYTVRREVRRWSPQDMGLVYAGNDTIGVYKLRSERLPSPQWQWDGRSS” as the sequence, how does the “soluble on expression in E. coli” value read?
**A.** not soluble
